± gives the standard deviation of the averaged measurements.
B1: library; a variant is named by its letters at N, in order (parent)
chain: GCUGUCACCGGUGUAUUACCCUAGUGGUCGACCGGUCUGAUGAGUCUNNNNNNAGACGAAACAGC

What was measured:
hypoxanthine [1] = variants of: B1; experiment: normalized RNA/DNA level with ligand (relative to sTRSVctl = 100) (log10 (% of sTRSVctl)); ligand: hypoxanthine (xanthine aptamer); higher = less ribozyme self-cleavage, higher mRNA level; settings: ligand concentration (+) RNA-Seq: 5 mM, HEK293T, reporter: mCherry (pCS4076), ligand present: yes
Outline: (§1)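 HEK293T cells received ligand, where used, 1 h before being transfected with 4 µg per 6-well well of library plasmids encoding reporter-linked ribozyme switches. After 72 h, RNA was extracted with EDTA and sequenced. RNA level was derived from RNA reads per DNA read, normalized to a spiked-in non-cleaving sequence or the top sequences, then scaled and log-transformed. Values were ×100 then log10, the top set was 25 sequences, and the minimum was 100 DNA reads.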

hypoxanthine [2] = variants of: B1; experiment: normalized RNA/DNA level without ligand (relative to sTRSVctl = 100) (log10 (% of sTRSVctl)); ligand: hypoxanthine (xanthine aptamer); higher = less ribozyme self-cleavage, higher mRNA level; settings: HEK293T, reporter: mCherry (pCS4076), ligand present: no
Outline: as §1

Row | Variant | normalized RNA/DNA level with ligand (log10) (hypoxanthine [1]) | normalized RNA/DNA level without ligand (log10) (hypoxanthine [2])
1 | GCUGUCACCGGUGUAUUACCCUAGUGGUCGACCGGUCUGAUGAGUCUUCCCUUAGACGAAACAGC | 1.92 ± 0.051 | 1.781 ± 0.017
2 | GCUGUCACCGGUGUAUUACCCUAGUGGUCGACCGGUCUGAUGAGUCUUCCCUAAGACGAAACAGC | 1.92 ± 0.033 | 1.79 ± 0.043
3 | GCUGUCACCGGUGUAUUACCCUAGUGGUCGACCGGUCUGAUGAGUCUACCGAAAGACGAAACAGC | 1.897 ± 0.018 | 1.74 ± 0.045
4 | GCUGUCACCGGUGUAUUACCCUAGUGGUCGACCGGUCUGAUGAGUCUACCGACAGACGAAACAGC | 1.967 ± 0.0065 | 1.825 ± 0.017
5 | GCUGUCACCGGUGUAUUACCCUAGUGGUCGACCGGUCUGAUGAGUCUACCCGAAGACGAAACAGC | 1.95 ± 0.028 | 1.755 ± 0.0068
6 | GCUGUCACCGGUGUAUUACCCUAGUGGUCGACCGGUCUGAUGAGUCUACCCGCAGACGAAACAGC | 1.91 ± 0.02 | 1.815 ± 0.016
7 | GCUGUCACCGGUGUAUUACCCUAGUGGUCGACCGGUCUGAUGAGUCUACCCGUAGACGAAACAGC | 1.94 ± 0.024 | 1.82 ± 0.048
8 | GCUGUCACCGGUGUAUUACCCUAGUGGUCGACCGGUCUGAUGAGUCUGCCCGAAGACGAAACAGC | 2.012 ± 0.015 | 1.719 ± 0.0081
9 | GCUGUCACCGGUGUAUUACCCUAGUGGUCGACCGGUCUGAUGAGUCUGCCCGUAGACGAAACAGC | 1.962 ± 0.019 | 1.83 ± 0.044
10 | GCUGUCACCGGUGUAUUACCCUAGUGGUCGACCGGUCUGAUGAGUCUACCCCCAGACGAAACAGC | 1.99 ± 0.16 | 1.879 ± 0.013
11 | GCUGUCACCGGUGUAUUACCCUAGUGGUCGACCGGUCUGAUGAGUCUACCCCGAGACGAAACAGC | 1.86 ± 0.032 | 1.45 ± 0.063
12 | GCUGUCACCGGUGUAUUACCCUAGUGGUCGACCGGUCUGAUGAGUCUACCCCUAGACGAAACAGC | 1.967 ± 0.0051 | 1.892 ± 0.0077
13 | GCUGUCACCGGUGUAUUACCCUAGUGGUCGACCGGUCUGAUGAGUCUCCCGAAAGACGAAACAGC | 1.9 ± 0.085 | 1.76 ± 0.033
14 | GCUGUCACCGGUGUAUUACCCUAGUGGUCGACCGGUCUGAUGAGUCUCCCGAGAGACGAAACAGC | 1.89 ± 0.035 | 1.65 ± 0.022
15 | GCUGUCACCGGUGUAUUACCCUAGUGGUCGACCGGUCUGAUGAGUCUCCCGACAGACGAAACAGC | 1.959 ± 0.0051 | 1.84 ± 0.033
16 | GCUGUCACCGGUGUAUUACCCUAGUGGUCGACCGGUCUGAUGAGUCUUCCCCCAGACGAAACAGC | 1.9 ± 0.075 | 1.782 ± 0.016
17 | GCUGUCACCGGUGUAUUACCCUAGUGGUCGACCGGUCUGAUGAGUCUUCCCCUAGACGAAACAGC | 1.996 ± 0.014 | 1.9 ± 0.023
18 | GCUGUCACCGGUGUAUUACCCUAGUGGUCGACCGGUCUGAUGAGUCUUCCCCGAGACGAAACAGC | 1.88 ± 0.025 | 1.5 ± 0.024
19 | GCUGUCACCGGUGUAUUACCCUAGUGGUCGACCGGUCUGAUGAGUCUUCCGACAGACGAAACAGC | 1.95 ± 0.022 | 1.796 ± 0.016
20 | GCUGUCACCGGUGUAUUACCCUAGUGGUCGACCGGUCUGAUGAGUCUUCCGAAAGACGAAACAGC | 1.94 ± 0.0047 | 1.631 ± 0.0036
21 | GCUGUCACCGGUGUAUUACCCUAGUGGUCGACCGGUCUGAUGAGUCUGCCGACAGACGAAACAGC | 1.891 ± 0.0051 | 1.55 ± 0.032

— the supplement of paper PMC6757056
